Here are results for three compounds from patent US10279036B2, “Antibody-albumin nanoparticle complexes comprising albumin, bevacizumab, and paclitaxel, and methods of making and using the same” (Mayo Foundation for Medical Education and Research, priority 2012, dated 2019).

Series [1] concerns A375 melanoma tumor cells. Nature of the series: A375 proliferation assay (DNA synthesis, EdU). It is filed as cell-based, human. The conditions noted are these: 100 μg/mL, overnight.
Description: After the overnight incubation, cell proliferation was determined by measuring the level of DNA synthesis.
After an overnight incubation, proliferation of the cells was measured by determining the level of DNA synthesis.
Proliferation of A375 melanoma tumor cells in vitro following exposure to various treatments was assessed. […] With reference to FIG. 33, the complexes were made with an ABRAXANE®: AVASTIN® at a 2.5 to 1 ratio. […] The nanoparticles were resuspended in 0.9% saline and added to the wells containing 50,000 A375 cells. The cells were incubated overnight at 37° C. The cells were stained with a thymidine analog, EdU, which incorporates into the DNA as cells proliferate. Cells that are actively proliferating stain positive. The proliferation index was calculated as the % positive cells in treated cells/% positive cells in untreated cells.
After the overnight incubation, the A375 cells were harvested, permeabolized and intracellularly stained with a FITC conjugated anti-EdU antibody. Cell proliferation was determined by DNA synthesis as a percentage of cells, which were FITC positive on a Guava 8HT flow cytometer (Millipore Billerica, Mass.). […] The proliferation index was calculated by dividing the percentage of proliferating cells in treated wells (FITC positive) by the percentage of cells proliferating in the untreated well.
Series [2] concerns A375 human melanoma tumor cells. Nature of the series: A375 xenograft, ABRAXANE/AVASTIN/cisplatin complexes. The conditions noted are these: treated once intravenously.
Description: Athymic nude mice were injected with 1×10^6 A375 human melanoma tumor cells. […] Following incubation, the complexes were diluted for mouse injection. Mice were treated once, and tumor growth was monitored for at least 80 days for all mice.
The target in another series is T1, ABRAXANE® nanoparticles (Homo sapiens, UniProt P02768).
T1 construct: purchased Celgene Corp
Nature of the series: Complex formation of labeled therapeutic antibodies with labeled ABRAXANE nanoparticles (flow cytometry). The class given is binding. The conditions noted are these: fluorescently labeled, FIG. 14. The source says: The particles were spun down, washed, and visualized by flow cytometry.
For orientation: A flow cytometer gives signals particle by particle.

Series [3] in a line: Bevacizumab binding of free paclitaxel (Western blot). The conditions noted are these: 4 mg bevacizumab with 0.1-2 mg paclitaxel, 30 minutes room temperature. The method, then:
The following was performed to determine if bevacizumab binds free paclitaxel. 4 mg of bevacizumab was incubated with paclitaxel (0.1, 0.5, 1, or 2 mg) for 30 minutes at room temperature.
Background: In western blotting, separated proteins are transferred to a membrane and probed.

The target of another series is T2, human serum albumin (Homo sapiens, UniProt P02768).
T2 construct: purchased
Nature of the series: Association and dissociation of AVASTIN with human serum albumin (streptavidin sensor). It is filed as binding. Particulars: read-out: dissociation constant. The method, then: (§1) The association and dissociation of AVASTIN® with human serum albumin and ABRAXANE® were determined. In this experiment, biotinylated AVASTIN® was bound to a streptavidin sensor. After AVASTIN® loading to the sensor, the sensor was exposed to either 1 mg/mL of human serum albumin or 1 mg/mL of ABRAXANE®. […] The dissociation constants were calculated to be 6.2×10^−6 and 5.873×10^−7 for human serum albumin and ABRAXANE®, respectively.
(§2) The association and dissociation of albumin with AVASTIN® and AVASTIN® with ABRAXANE® were determined. In this experiment, biotinylated AVASTIN® or biotinylated Albumin® was bound to a streptavidin sensor. After albumin or AVASTIN® loading to the sensor, the sensor was exposed to 1 mg/mL of AVASTIN® or 1 mg/mL of ABRAXANE®, respectively. […] The dissociation constant calculated for albumin and AVASTIN® was 6.588×10^−10. The dissociation constant calculated for AVASTIN® and ABRAXANE® in this experiment was 1.698×10^−5.

The next series has as its target T3, ABRAXANE® (Homo sapiens, UniProt P02768).
T3 construct: purchased Celgene Corp
Nature of the series: Association and dissociation of AVASTIN (or IgG) with ABRAXANE (streptavidin sensor). The class given is binding. Particulars: biotinylated AVASTIN on streptavidin sensor, 1 mg/mL ABRAXANE, read-out: dissociation constant. The method, then: as §1, §2
The following was performed to assess protein binding due to deglycosylation of bevacizumab compared to naturally occurring IgG. In order to determine if bevacizumab binding to ABRAXANE® is due to the deglycosylation of the Fe chain of the antibody, the binding kinetics of bevacizumab were compare to naturally produced IgG isolated from human plasma.

Like-named read-outs stand apart in the source and are kept apart here.

As for `N.N.[Cl][Pt][Cl]` [cisplatin, cisdiamminedichloroplatinum (II)], the cells killed in series [1] came out at 100%. In addition, the median survival in series [2] was found to be 9 days.
As to “AVASTIN®: humanized monoclonal antibody that binds to vascular endothelial growth factor A”, the “complex formation with ABRAXANE nanoparticles” value with ABRAXANE® nanoparticles is recorded as “spontaneously formed complexes with ABRAXANE® nanoparticles”. For the same compound, the “binding of free paclitaxel” value in series [3] was “did not bind free paclitaxel”. Further, the Kd was determined as 6200 nM in the series with human serum albumin (biotinylated AVASTIN on streptavidin sensor, 1 mg/mL human serum albumin); 0.659 nM with human serum albumin (biotinylated albumin on streptavidin sensor, 1 mg/mL AVASTIN); 580 nM with ABRAXANE® (first experiment, listed as bevacizumab); 587 nM with ABRAXANE® (first experiment); 17000 nM with ABRAXANE® (second experiment).
Turning to “rituxan: therapeutic monoclonal antibody”, in the series with ABRAXANE® nanoparticles, the “complex formation with ABRAXANE nanoparticles” value is on record as “spontaneously formed complexes with ABRAXANE® nanoparticles”.
